# Data from patent US20080287363A1.
# Key:
# [1] = biological target: CCL5/RANTES (UniProt P13501); test: equilibrium competition receptor binding assay (SPA): inhibition of 0.1 nM 125I-RANTES binding to CHO/CCR5 membranes
# [2] = biological target: CCL5/RANTES (UniProt P13501); test: equilibrium competition receptor binding assay (SPA): inhibition of 0.1 nM 125I-RANTES binding to CHO/CCR1 membranes
# Chain of CCL5/RANTES (P13501 24-91 limits assumed): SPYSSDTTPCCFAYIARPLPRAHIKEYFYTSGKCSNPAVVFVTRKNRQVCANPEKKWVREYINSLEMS
substance,measurement,setting,value
"recombinant Δ6 evasin-4 (truncated, N-terminally 6His tagged evasin-4, amino acids 24-127), purified",IC50,[1],3 nM
same,IC50,[2],7 nM
